The record followed here is patent publication US20220298218A1 (ANTAG THERAPEUTICS, published 2022).

Where no end group is shown, it is not given here. [ ]: non-standard residue; d: D form. The star is where a group is joined. C16 diacid = O=C(O)CCCCCCCCCCCCCCC(=O)*; Aib = CC(C)(N)C(=O)O

B1: AT632 (peptide)
peptide: TFISDYKIAMDKIHQQDFVNWLLAQKPSSGAPPPS
HELM: PEPTIDE1{T.F.I.S.D.Y.K.I.A.M.D.K.I.H.Q.Q.D.F.V.N.W.L.L.A.Q.K.P.S.S.G.A.P.P.P.S}|PEPTIDE2{[O=C(O)CCCCCCCCCCCCCCC(=O)[*:2]].[gGlu]}$PEPTIDE1,PEPTIDE2,7:R3-2:R2$$$V2.0; N-terminus assumed
SMILES: CC[C@H](C)[C@H](NC(=O)[C@H](CCCCNC(=O)CC[C@H](NC(=O)CCCCCCCCCCCCCCC(=O)O)C(=O)O)NC(=O)[C@H](Cc1ccc(O)cc1)NC(=O)[C@H](CC(=O)O)NC(=O)[C@H](CO)NC(=O)[C@@H](NC(=O)[C@H](Cc1ccccc1)NC(=O)[C@@H](N)[C@@H](C)O)[C@@H](C)CC)C(=O)N[C@@H](C)C(=O)N[C@@H](CCSC)C(=O)N[C@@H](CC(=O)O)C(=O)N[C@@H](CCCCN)C(=O)N[C@H](C(=O)N[C@@H](Cc1c[nH]cn1)C(=O)N[C@@H](CCC(N)=O)C(=O)N[C@@H](CCC(N)=O)C(=O)N[C@@H](CC(=O)O)C(=O)N[C@@H](Cc1ccccc1)C(=O)N[C@H](C(=O)N[C@@H](CC(N)=O)C(=O)N[C@@H](Cc1c[nH]c2ccccc12)C(=O)N[C@@H](CC(C)C)C(=O)N[C@@H](CC(C)C)C(=O)N[C@@H](C)C(=O)N[C@@H](CCC(N)=O)C(=O)N[C@@H](CCCCN)C(=O)N1CCC[C@H]1C(=O)N[C@@H](CO)C(=O)N[C@@H](CO)C(=O)NCC(=O)N[C@@H](C)C(=O)N1CCC[C@H]1C(=O)N1CCC[C@H]1C(=O)N1CCC[C@H]1C(=O)N[C@@H](CO)C(=O)O)C(C)C)[C@@H](C)CC
B2: AT637 (peptide)
peptide: [Aib]GTFISDYSIAMDKIK(C16 diacid)QQDFVNWLLAQKPSSGAPPPS-OH
modifications: N-terminus assumed
SMILES: CC[C@H](C)[C@H](NC(=O)[C@H](CO)NC(=O)[C@H](Cc1ccc(O)cc1)NC(=O)[C@H](CC(=O)O)NC(=O)[C@H](CO)NC(=O)[C@@H](NC(=O)[C@H](Cc1ccccc1)NC(=O)[C@@H](NC(=O)CNC(=O)C(C)(C)N)[C@@H](C)O)[C@@H](C)CC)C(=O)N[C@@H](C)C(=O)N[C@@H](CCSC)C(=O)N[C@@H](CC(=O)O)C(=O)N[C@@H](CCCCN)C(=O)N[C@H](C(=O)N[C@@H](CCCCNC(=O)CCCCCCCCCCCCCCC(=O)O)C(=O)N[C@@H](CCC(N)=O)C(=O)N[C@@H](CCC(N)=O)C(=O)N[C@@H](CC(=O)O)C(=O)N[C@@H](Cc1ccccc1)C(=O)N[C@H](C(=O)N[C@@H](CC(N)=O)C(=O)N[C@@H](Cc1c[nH]c2ccccc12)C(=O)N[C@@H](CC(C)C)C(=O)N[C@@H](CC(C)C)C(=O)N[C@@H](C)C(=O)N[C@@H](CCC(N)=O)C(=O)N[C@@H](CCCCN)C(=O)N1CCC[C@H]1C(=O)N[C@@H](CO)C(=O)N[C@@H](CO)C(=O)NCC(=O)N[C@@H](C)C(=O)N1CCC[C@H]1C(=O)N1CCC[C@H]1C(=O)N1CCC[C@H]1C(=O)N[C@@H](CO)C(=O)O)C(C)C)[C@@H](C)CC
B3: AT630 (peptide)
peptide: EGTFISDYSIAMDKIKQQDFVNWLLAQKPSSGAPPPS
HELM: PEPTIDE1{E.G.T.F.I.S.D.Y.S.I.A.M.D.K.I.K.Q.Q.D.F.V.N.W.L.L.A.Q.K.P.S.S.G.A.P.P.P.S}|PEPTIDE2{[O=C(O)CCCCCCCCCCCCCCC(=O)[*:2]].[gGlu]}$PEPTIDE1,PEPTIDE2,16:R3-2:R2$$$V2.0; N-terminus assumed
SMILES: CC[C@H](C)[C@H](NC(=O)[C@H](CO)NC(=O)[C@H](Cc1ccc(O)cc1)NC(=O)[C@H](CC(=O)O)NC(=O)[C@H](CO)NC(=O)[C@@H](NC(=O)[C@H](Cc1ccccc1)NC(=O)[C@@H](NC(=O)CNC(=O)[C@@H](N)CCC(=O)O)[C@@H](C)O)[C@@H](C)CC)C(=O)N[C@@H](C)C(=O)N[C@@H](CCSC)C(=O)N[C@@H](CC(=O)O)C(=O)N[C@@H](CCCCN)C(=O)N[C@H](C(=O)N[C@@H](CCCCNC(=O)CC[C@H](NC(=O)CCCCCCCCCCCCCCC(=O)O)C(=O)O)C(=O)N[C@@H](CCC(N)=O)C(=O)N[C@@H](CCC(N)=O)C(=O)N[C@@H](CC(=O)O)C(=O)N[C@@H](Cc1ccccc1)C(=O)N[C@H](C(=O)N[C@@H](CC(N)=O)C(=O)N[C@@H](Cc1c[nH]c2ccccc12)C(=O)N[C@@H](CC(C)C)C(=O)N[C@@H](CC(C)C)C(=O)N[C@@H](C)C(=O)N[C@@H](CCC(N)=O)C(=O)N[C@@H](CCCCN)C(=O)N1CCC[C@H]1C(=O)N[C@@H](CO)C(=O)N[C@@H](CO)C(=O)NCC(=O)N[C@@H](C)C(=O)N1CCC[C@H]1C(=O)N1CCC[C@H]1C(=O)N1CCC[C@H]1C(=O)N[C@@H](CO)C(=O)O)C(C)C)[C@@H](C)CC
B4: AT636 (peptide)
peptide: VGTFISDYSIAMDKIK(C16 diacid)QQDFVNWLLAQKPSSGAPPPS-OH
modifications: N-terminus assumed
SMILES: CC[C@H](C)[C@H](NC(=O)[C@H](CO)NC(=O)[C@H](Cc1ccc(O)cc1)NC(=O)[C@H](CC(=O)O)NC(=O)[C@H](CO)NC(=O)[C@@H](NC(=O)[C@H](Cc1ccccc1)NC(=O)[C@@H](NC(=O)CNC(=O)[C@@H](N)C(C)C)[C@@H](C)O)[C@@H](C)CC)C(=O)N[C@@H](C)C(=O)N[C@@H](CCSC)C(=O)N[C@@H](CC(=O)O)C(=O)N[C@@H](CCCCN)C(=O)N[C@H](C(=O)N[C@@H](CCCCNC(=O)CCCCCCCCCCCCCCC(=O)O)C(=O)N[C@@H](CCC(N)=O)C(=O)N[C@@H](CCC(N)=O)C(=O)N[C@@H](CC(=O)O)C(=O)N[C@@H](Cc1ccccc1)C(=O)N[C@H](C(=O)N[C@@H](CC(N)=O)C(=O)N[C@@H](Cc1c[nH]c2ccccc12)C(=O)N[C@@H](CC(C)C)C(=O)N[C@@H](CC(C)C)C(=O)N[C@@H](C)C(=O)N[C@@H](CCC(N)=O)C(=O)N[C@@H](CCCCN)C(=O)N1CCC[C@H]1C(=O)N[C@@H](CO)C(=O)N[C@@H](CO)C(=O)NCC(=O)N[C@@H](C)C(=O)N1CCC[C@H]1C(=O)N1CCC[C@H]1C(=O)N1CCC[C@H]1C(=O)N[C@@H](CO)C(=O)O)C(C)C)[C@@H](C)CC
B5: AT633 (peptide)
peptide: Ac-EGTFISDYSIAMDKIK(C16 diacid)QQDFVNWLLAQKPSSGAPPPS-OH
SMILES: CC[C@H](C)[C@H](NC(=O)[C@H](CO)NC(=O)[C@H](Cc1ccc(O)cc1)NC(=O)[C@H](CC(=O)O)NC(=O)[C@H](CO)NC(=O)[C@@H](NC(=O)[C@H](Cc1ccccc1)NC(=O)[C@@H](NC(=O)CNC(=O)[C@H](CCC(=O)O)NC(C)=O)[C@@H](C)O)[C@@H](C)CC)C(=O)N[C@@H](C)C(=O)N[C@@H](CCSC)C(=O)N[C@@H](CC(=O)O)C(=O)N[C@@H](CCCCN)C(=O)N[C@H](C(=O)N[C@@H](CCCCNC(=O)CCCCCCCCCCCCCCC(=O)O)C(=O)N[C@@H](CCC(N)=O)C(=O)N[C@@H](CCC(N)=O)C(=O)N[C@@H](CC(=O)O)C(=O)N[C@@H](Cc1ccccc1)C(=O)N[C@H](C(=O)N[C@@H](CC(N)=O)C(=O)N[C@@H](Cc1c[nH]c2ccccc12)C(=O)N[C@@H](CC(C)C)C(=O)N[C@@H](CC(C)C)C(=O)N[C@@H](C)C(=O)N[C@@H](CCC(N)=O)C(=O)N[C@@H](CCCCN)C(=O)N1CCC[C@H]1C(=O)N[C@@H](CO)C(=O)N[C@@H](CO)C(=O)NCC(=O)N[C@@H](C)C(=O)N1CCC[C@H]1C(=O)N1CCC[C@H]1C(=O)N1CCC[C@H]1C(=O)N[C@@H](CO)C(=O)O)C(C)C)[C@@H](C)CC
B6: AT635 (peptide)
peptide: Ac-EGTFISEYSIAMEKIK(C16 diacid)QQDFVNWLLAQKPSSGAPPPS-OH
SMILES: CC[C@H](C)[C@H](NC(=O)[C@H](CO)NC(=O)[C@H](Cc1ccc(O)cc1)NC(=O)[C@H](CCC(=O)O)NC(=O)[C@H](CO)NC(=O)[C@@H](NC(=O)[C@H](Cc1ccccc1)NC(=O)[C@@H](NC(=O)CNC(=O)[C@H](CCC(=O)O)NC(C)=O)[C@@H](C)O)[C@@H](C)CC)C(=O)N[C@@H](C)C(=O)N[C@@H](CCSC)C(=O)N[C@@H](CCC(=O)O)C(=O)N[C@@H](CCCCN)C(=O)N[C@H](C(=O)N[C@@H](CCCCNC(=O)CCCCCCCCCCCCCCC(=O)O)C(=O)N[C@@H](CCC(N)=O)C(=O)N[C@@H](CCC(N)=O)C(=O)N[C@@H](CC(=O)O)C(=O)N[C@@H](Cc1ccccc1)C(=O)N[C@H](C(=O)N[C@@H](CC(N)=O)C(=O)N[C@@H](Cc1c[nH]c2ccccc12)C(=O)N[C@@H](CC(C)C)C(=O)N[C@@H](CC(C)C)C(=O)N[C@@H](C)C(=O)N[C@@H](CCC(N)=O)C(=O)N[C@@H](CCCCN)C(=O)N1CCC[C@H]1C(=O)N[C@@H](CO)C(=O)N[C@@H](CO)C(=O)NCC(=O)N[C@@H](C)C(=O)N1CCC[C@H]1C(=O)N1CCC[C@H]1C(=O)N1CCC[C@H]1C(=O)N[C@@H](CO)C(=O)O)C(C)C)[C@@H](C)CC

The assay concerns the target T1, human GIP receptor (human, UniProt P48546 22-466).
T1 sequence (looked up): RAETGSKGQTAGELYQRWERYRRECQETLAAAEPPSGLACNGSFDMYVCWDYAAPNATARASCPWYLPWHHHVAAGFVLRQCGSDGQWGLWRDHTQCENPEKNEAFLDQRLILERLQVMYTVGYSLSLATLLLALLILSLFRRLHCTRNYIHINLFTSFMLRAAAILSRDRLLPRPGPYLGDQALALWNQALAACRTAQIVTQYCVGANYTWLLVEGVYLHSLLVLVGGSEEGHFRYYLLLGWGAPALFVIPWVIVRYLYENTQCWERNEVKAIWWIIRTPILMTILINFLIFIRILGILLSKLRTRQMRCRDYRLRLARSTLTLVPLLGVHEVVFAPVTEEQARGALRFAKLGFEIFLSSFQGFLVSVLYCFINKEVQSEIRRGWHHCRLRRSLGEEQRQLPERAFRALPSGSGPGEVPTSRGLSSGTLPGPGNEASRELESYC
In words: cell-based or functional assay.
On to B1, for which the “cAMP agonism % Emax” value was 0%, the “cAMP antagonism” value came out at 8.41 nM, the “cAMP antagonism % inhib” value was 100% and the “cAMP antagonism pIC50” value was 8.1.

For the molecule B2, the “cAMP agonism % Emax” value came to 0%, the “cAMP antagonism” value amounted to 2.23 nM, the “cAMP antagonism % inhib” value was determined as 89% and the “cAMP antagonism pIC50” value was determined as 8.7.

For the molecule B3, the “cAMP agonism % Emax” value is 0%, the “cAMP antagonism” value amounted to 11.2 nM, the “cAMP antagonism % inhib” value stood at 85% and the “cAMP antagonism pIC50” value is 8.

In the case of B4, the “cAMP agonism % Emax” value amounted to 0%, the “cAMP antagonism” value worked out at 1.71 nM, the “cAMP antagonism % inhib” value was determined as 87% and the “cAMP antagonism pIC50” value worked out at 8.8.

As for B5, the “cAMP agonism % Emax” value was determined as 23% and the “cAMP antagonism pIC50” value is approximately 8.8.

For B6, the “cAMP agonism % Emax” value is 5%, the “cAMP antagonism” value was found to be 1.12 nM, the “cAMP antagonism % inhib” value was determined as 87% and the “cAMP antagonism pIC50” value worked out at 9.
